# From patent US9821037B1, “Compounds and method of use as anti-infection compounds and therapeutic agents to regulate cholesterol metabolism” (University of Kentucky Research Foundation, priority 2013, dated 2017)
# Legend:
# [1] = tested on: BY4741 yeast; experiment: Saccharomyces cerevisiae growth inhibition assay (galactose-inducible over-expression of C-terminus constructs); format: cell-based; conditions: 4 days, 28° C.; for yeast growth with gene expression induced: BY4741, galactose as carbon source
# Procedure: Constructs were created in which the C-terminal 92 AA of YSS, the C-terminal 64 AA of YSS, the C-terminal 66 AA of ASS, the C-terminal 92 AA of YSS in which the 26 AA domain is replaced by the corresponding of ASS or BSS, and the C-terminus of either ASS or BSS in which the 26 AA domain is replaced by the corresponding of YSS were cloned into the pESC-Ura (Gal1 and Gal10 promoters) vector. Constructs were transformed into BY4741 yeast and positive transformants were grown in 2 mL of Yeast-Synthetic Drop-out medium for 4 days. Serial dilutions (Corresponding to O.D.600=0.5, 0.1, 0.02, and 0.004) were plated on selection media containing either glucose or galactose as the carbon source. Pictures were taken after 4 days growth at 28° C.
# To test this possibility, a gene coding for the 92 carboxy terminal residues of the yeast squalene synthase was inserted into a galactose inducible expression vector and the recombinant vector introduced into a wild type yeast (BY4741) (FIG. 7). When grown on glucose, expression of the 92 carboxy-terminal squalene synthase gene was suppressed and the transformed yeast grew normally. […] If a plant complementary carboxy-terminal gene was substituted for the yeast, no adverse effects were noted. When the 26 amino acid linker domain was deleted from the yeast gene construct, growth also was not impaired.
# Constructs to be tested in S. cerevisiae were created using the pESC-Leu vector (Agilent) which harbors the Gal1/Gal10 divergent promoter to allow for galactose induction of gene expression. Primers used to create these constructs are listed in Table 4 (restriction sites, if any, in bold). YSS-92 was created by PCR amplifying a portion of the YSS gene corresponding to the 92 C-terminal amino acids using the primer sets, YSS-92 EcoRI For and YSS NotI Rev, and YSS-92 BamHI For and YSS HindIII Rev, and cloning into pESC-Leu with the corresponding restriction enzyme sites. ASS-66 and YSS-64 were created in the same manner. ASS-YSS and YSS-ASS were created in a similar manner using YSS-ASS-YSS or ASS-YSS-ASS as the templates for PCR, respectively. […]
# [2] = tested on: erg9 knockout yeast line CALI7-1; experiment: erg9 complementation assay (restoration of ergosterol prototrophy); format: cell-based, S. cerevisiae; conditions: construct expressed in CALI7-1; plates lacking ergosterol, 28° C., 72 h
# Excerpt: Various squalene synthases were cloned into the yeast expression vector, Yep352-ADH1, including those from S. cerevisiae (YSS), B. braunii (BSS), N. benthamiana (TSS), A. thaliana (ASS), and R. norvegicus (RSS), as well as a C-terminal truncated form of YSS in which 24 amino acids comprising the ER membrane-spanning region were eliminated (YSStr). These constructs were transformed into the yeast line CALI7-1, which has been selected for high level FPP biosynthesis (10) and has an erg9 knockout mutation. It is unable to synthesize sterols de novo and is dependent on exogenous ergosterol for growth. […] To evaluate the encoded enzymes for catalytic activity, extracts prepared from the CALI7-1 yeast lines were assayed for squalene synthase enzyme activity. Constructs were also expressed in TN-7 yeast line and cultures were grown in liquid media with ergosterol and subsequently analyzed for squalene accumulation. Squalene levels were determined in TN-7 because in this yeast line, there is no possibility of squalene feeding into the ergosterol biosynthetic pathway. This allows for accurate comparisons of squalene production by the various SS enzymes.
# The Cali7-1 yeast line, which has an erg9 deletion so that it cannot synthesize sterols de novo and requires exogenous ergosterol for growth, was used for these purposes (10). […]
Molecule,yeast growth with gene expression induced [1],"yeast growth with gene expression suppressed ([1]; BY4741, glucose as carbon source)",ability to complement the erg9 deletion (growth without exogenous ergosterol) [2]
"KSKLAVQDPNFLKLNIQISKIEQFME (listed as Saccharomyces cerevisiae) [26 amino acid stretch of YSS, 26 amino acid linker-domain of squalene synthase from S. cerevisiae]",can inhibit the growth of yeast,,
"YSS-92: the 92 C-terminal amino acids of YSS (protein, UniProt P29704 353-444, looked up, fragment) KSKLAVQDPNFLKLNIQISKIEQFMEEMYQDKLPPNVKPNETPIFLKVKERSRYDDELVPTQQEEEYKFNMVLSIILSVLLGFYYIYTLHRA",growth was severely arrested,grew normally,
"YSS: squalene synthase from S. cerevisiae (protein, UniProt P29704 1-444, looked up, full-length, squalene synthase from S. cerevisiae) MGKLLQLALHPVEMKAALKLKFCRTPLFSIYDQSTSPYLLHCFELLNLTSRSFAAVIRELHPELRNCVTLFYLILRALDTIEDDMSIEHDLKIDLLRHFHEKLLLTKWSFDGNAPDVKDRAVLTDFESILIEFHKLKPEYQEVIKEITEKMGNGMADYILDENYNLNGLQTVHDYDVYCHYVAGLVGDGLTRLIVIAKFANESLYSNEQLYESMGLFLQKTNIIRDYNEDLVDGRSFWPKEIWSQYAPQLKDFMKPENEQLGLDCINHLVLNALSHVIDVLTYLAGIHEQSTFQFCAIPQVMAIATLALVFNNREVLHGNVKIRKGTTCYLILKSRTLRGCVEIFDYYLRDIKSKLAVQDPNFLKLNIQISKIEQFMEEMYQDKLPPNVKPNETPIFLKVKERSRYDDELVPTQQEEEYKFNMVLSIILSVLLGFYYIYTLHRA",,,could restore ergosterol prototrophy
